Experimental data published in the RNAGym collection of RNA variant scans (doi:10.7554/elife.80360).

B1: CPEB3 Ribozyme (parent)
chain: GGGGGCCACAGCAGAAGCGUUCACGUCGCGGCCCCUGUCAGAUUCUGGUGAAUCUGCGAAUUCUGCUGU

Variants of: B1
Experiment: self-cleavage, relative activity (ratio to wild type); higher = more cleavage; co-transcriptional

Compared with GAGGGCCACAGCAGAAGUGUUCACGUCGCGGCCCCUGUCAGAUUCUGGUGAAUCUGCGAAUUCUGCUGU, GAGGGCCACAGCAGAAGCGUUGACGUCGCGGCCCCUGUCAGAUUCUGGUGAAUCUGCGAAUUCUGCUGU is lower in self-cleavage: 0.0628 for the first, 0.0504 for the second.

Going from GAGGGCCACAGCAGAAGCGUUUACGUCGCGGCCCCUGUCAGAUUCUGGUGAAUCUGCGAAUUCUGCUGU to GAGGGCCACAGCAGAAGCGUUCAGGUCGCGGCCCCUGUCAGAUUCUGGUGAAUCUGCGAAUUCUGCUGU, the self-cleavage falls from 0.051 to 0.0162.

First: GAGGGCCACAGCAGAAGCGUUCACGUAGCGGCCCCUGUCAGAUUCUGGUGAAUCUGCGAAUUCUGCUGU
Second: GAGGGCCACAGCAGAAGCGUUCACGUGGCGGCCCCUGUCAGAUUCUGGUGAAUCUGCGAAUUCUGCUGU
The self-cleavage of the first is lower: 0.0442 for the first, 0.0739 for the second.

First: GAGGGCCACAGCAGAAGCGUUCACGUUGCGGCCCCUGUCAGAUUCUGGUGAAUCUGCGAAUUCUGCUGU
Second: GAGGGCCACAGCAGAAGCGUUCACGUCGAGGCCCCUGUCAGAUUCUGGUGAAUCUGCGAAUUCUGCUGU
The self-cleavage of the first is higher: 0.0441 for the first, 0.0397 for the second.

First: GAGGGCCACAGCAGAAGCGUUCACGUCGGGGCCCCUGUCAGAUUCUGGUGAAUCUGCGAAUUCUGCUGU
Second: GAGGGCCACAGCAGAAGCGUUCACGUCGUGGCCCCUGUCAGAUUCUGGUGAAUCUGCGAAUUCUGCUGU
The self-cleavage of the first is lower: 0.0351 for the first, 0.0474 for the second.

Compared with GAGGGCCACAGCAGAAGCGUUCACGUCGCGGUCCCUGUCAGAUUCUGGUGAAUCUGCGAAUUCUGCUGU, GAGGGCCACAGCAGAAGCGUUCACGUCGCGGCACCUGUCAGAUUCUGGUGAAUCUGCGAAUUCUGCUGU is lower in self-cleavage: 0.0612 for the first, 0.0406 for the second.

Going from GAGGGCCACAGCAGAAGCGUUCACGUCGCGGCUCCUGUCAGAUUCUGGUGAAUCUGCGAAUUCUGCUGU to GAGGGCCACAGCAGAAGCGUUCACGUCGCGGCCACUGUCAGAUUCUGGUGAAUCUGCGAAUUCUGCUGU, the self-cleavage falls from 0.0941 to 0.0453.

Compared with GAGGGCCACAGCAGAAGCGUUCACGUCGCGGCCUCUGUCAGAUUCUGGUGAAUCUGCGAAUUCUGCUGU, GAGGGCCACAGCAGAAGCGUUCACGUCGCGGCCCAUGUCAGAUUCUGGUGAAUCUGCGAAUUCUGCUGU is lower in self-cleavage: 0.106 for the first, 0.0641 for the second.

First: GAGGGCCACAGCAGAAGCGUUCACGUCGCGGCCCGUGUCAGAUUCUGGUGAAUCUGCGAAUUCUGCUGU
Second: GAGGGCCACAGCAGAAGCGUUCACGUCGCGGCCCUUGUCAGAUUCUGGUGAAUCUGCGAAUUCUGCUGU
The self-cleavage of the first is lower: 0.0841 for the first, 0.542 for the second.

Compared with GAGGGCCACAGCAGAAGCGUUCACGUCGCGGCCCCUGUAAGAUUCUGGUGAAUCUGCGAAUUCUGCUGU, GAGGGCCACAGCAGAAGCGUUCACGUCGCGGCCCCUGUUAGAUUCUGGUGAAUCUGCGAAUUCUGCUGU is higher in self-cleavage: 0.032 for the first, 0.072 for the second.

First: GAGGGCCACAGCAGAAGCGUUCACGUCGCGGCCCCUGUCAGAUUGUGGUGAAUCUGCGAAUUCUGCUGU
Second: GAGGGCCACAGCAGAAGCGUUCACGUCGCGGCCCCUGUCAGAUUCUGGUGAAUAUGCGAAUUCUGCUGU
The self-cleavage of the first is higher: 0.217 for the first, 0.112 for the second.

Compared with GAGGGCCACAGCAGAAGCGUUCACGUCGCGGCCCCUGUCAGAUUCUGGUGAAUUUGCGAAUUCUGCUGU, GAGGGCCACAGCAGAAGCGUUCACGUCGCGGCCCCUGUCAGAUUCUGGUGAAUCUGAGAAUUCUGCUGU is lower in self-cleavage: 0.152 for the first, 0.0762 for the second.

First: GAGGGCCACAGCAGAAGCGUUCACGUCGCGGCCCCUGUCAGAUUCUGGUGAAUCUGGGAAUUCUGCUGU
Second: GAGGGCCACAGCAGAAGCGUUCACGUCGCGGCCCCUGUCAGAUUCUGGUGAAUCUGUGAAUUCUGCUGU
The self-cleavage of the first is higher: 0.047 for the first, 0.0401 for the second.

Compared with GAGGGCCACAGCAGAAGCGUUCACGUCGCGGCCCCUGUCAGAUUCUGGUGAAUCUGCGAAUUGUGCUGU, GAGGGCCACAGCAGAAGCGUUCACGUCGCGGCCCCUGUCAGAUUCUGGUGAAUCUGCGAAUUUUGCUGU is higher in self-cleavage: 0.0931 for the first, 0.173 for the second.

Going from GAGGGCCACAGCAGAAGCGUUCACGUCGCGGCCCCUGUCAGAUUCUGGUGAAUCUGCGAAUUCUGAUGU to GAGGGCCACAGCAGAAGCGUUCACGUCGCGGCCCCUGUCAGAUUCUGGUGAAUCUGCGAAUUCUGGUGU, the self-cleavage rises from 0.0939 to 0.101.

Going from GAGGGCCACAGCAGAAGCGUUCACGUCGCGGCCCCUGUCAGAUUCUGGUGAAUCUGCGAAUUCUGUUGU to GAAGGCCACAGCAGAAGCGUUCACGUCGCGGCCCCUGUCAGAUUCUGGUGAAUCUGCGAAUUCUGCUGU, the self-cleavage falls from 0.236 to 0.0827.

First: GACGGCCACAGCAGAAGCGUUCACGUCGCGGCCCCUGUCAGAUUCUGGUGAAUCUGCGAAUUCUGCUGU
Second: GAUGGCCACAGCAGAAGCGUUCACGUCGCGGCCCCUGUCAGAUUCUGGUGAAUCUGCGAAUUCUGCUGU
The self-cleavage of the first is higher: 0.176 for the first, 0.0425 for the second.

Compared with GAGGACCACAGCAGAAGCGUUCACGUCGCGGCCCCUGUCAGAUUCUGGUGAAUCUGCGAAUUCUGCUGU, GAGGCCCACAGCAGAAGCGUUCACGUCGCGGCCCCUGUCAGAUUCUGGUGAAUCUGCGAAUUCUGCUGU is higher in self-cleavage: 0.0392 for the first, 0.122 for the second.

First: GAGGGCCACAACAGAAGCGUUCACGUCGCGGCCCCUGUCAGAUUCUGGUGAAUCUGCGAAUUCUGCUGU
Second: GAGGGCCACACCAGAAGCGUUCACGUCGCGGCCCCUGUCAGAUUCUGGUGAAUCUGCGAAUUCUGCUGU
The self-cleavage of the first is higher: 0.101 for the first, 0.0914 for the second.

GAGGGCCACAUCAGAAGCGUUCACGUCGCGGCCCCUGUCAGAUUCUGGUGAAUCUGCGAAUUCUGCUGU gave a self-cleavage of 0.117.
